B1: NLV2 TCR alpha chain (CDR3α only) (parent)
chain: AGPMKTSYDKVI
partner: MLVPMVATV

In the test the parent is B1. Description: T-Switch: Jurkat TCRβ−/− cells expressing a CDR3 saturation-mutagenesis library, stained with two peptide-HLA-A*02:01 tetramers (original and novel peptide) plus anti-CD3, FACS-sorted into four gates, gDNA sequenced. Particulars: with HLA-A*02:01 with peptide … (NLV 3-1, the novel peptide), tetramers 1 µg/mL, 30 min on ice, SP, DP and SW gates expanded about 10 days between rounds ('two to three rounds of selection' in the Methods), gate SW: higher = more of the variant in the gate that binds the novel peptide and not the original one = switched binding. Fold enrichment of the CDR3 variant in one FACS gate of a two-tetramer stain, unresolved parent, parent is a CDR3 fragment, scale: fold enrichment, numbering: sequential-on-construct, sequence starts at 1.
In the case of […] (CDR3 as printed); K5I derived by comparing it with the table's wild-type CDR3 AGPMKTSYDKVI, the enrichment was found to be 0.

On to […] (CDR3 as printed); I12H derived by comparing it with the table's wild-type CDR3 AGPMKTSYDKVI, for which the enrichment was 0.

Turning to […] (CDR3 as printed); K10R derived by comparing it with the table's wild-type CDR3 AGPMKTSYDKVI, the enrichment turned out to be 0.

As for […] (CDR3 as printed); A1G derived by comparing it with the table's wild-type CDR3 AGPMKTSYDKVI, the enrichment was 0.

Consider […] (CDR3 as printed); D9C derived by comparing it with the table's wild-type CDR3 AGPMKTSYDKVI, for which the enrichment was found to be 0.

As for […] (CDR3 as printed); K5P derived by comparing it with the table's wild-type CDR3 AGPMKTSYDKVI, the enrichment turned out to be 0.

For […] (CDR3 as printed); K5V derived by comparing it with the table's wild-type CDR3 AGPMKTSYDKVI, the enrichment turned out to be 0.

For the variant […] (CDR3 as printed); G2I derived by comparing it with the table's wild-type CDR3 AGPMKTSYDKVI, the enrichment was 0.

For the variant […] (CDR3 as printed); G2V derived by comparing it with the table's wild-type CDR3 AGPMKTSYDKVI, the enrichment stood at 0.

Regarding […] (CDR3 as printed); A1L derived by comparing it with the table's wild-type CDR3 AGPMKTSYDKVI, the enrichment turned out to be 0.

Regarding […] (CDR3 as printed); A1E derived by comparing it with the table's wild-type CDR3 AGPMKTSYDKVI, the enrichment was found to be 0.

Regarding […] (CDR3 as printed); A1Y derived by comparing it with the table's wild-type CDR3 AGPMKTSYDKVI, the enrichment turned out to be 0.533.

Take […] (CDR3 as printed); A1N derived by comparing it with the table's wild-type CDR3 AGPMKTSYDKVI: the enrichment worked out at 0.

With […] (CDR3 as printed); I12V derived by comparing it with the table's wild-type CDR3 AGPMKTSYDKVI, the enrichment was 0.

As to […] (CDR3 as printed); G2H derived by comparing it with the table's wild-type CDR3 AGPMKTSYDKVI, the enrichment worked out at 0.

Turning to […] (CDR3 as printed); K5G derived by comparing it with the table's wild-type CDR3 AGPMKTSYDKVI, the enrichment came out at 0.

In the case of […] (CDR3 as printed); I12T derived by comparing it with the table's wild-type CDR3 AGPMKTSYDKVI, the enrichment came out at 0.

With […] (CDR3 as printed); K10M derived by comparing it with the table's wild-type CDR3 AGPMKTSYDKVI, the enrichment turned out to be 0.

For […] (CDR3 as printed); D9E derived by comparing it with the table's wild-type CDR3 AGPMKTSYDKVI, the enrichment was determined as 0.

Consider […] (CDR3 as printed); K5T derived by comparing it with the table's wild-type CDR3 AGPMKTSYDKVI, for which the enrichment is 0.

Regarding […] (CDR3 as printed); I12D derived by comparing it with the table's wild-type CDR3 AGPMKTSYDKVI, the enrichment turned out to be 0.

For the variant […] (CDR3 as printed); I12S derived by comparing it with the table's wild-type CDR3 AGPMKTSYDKVI, the enrichment worked out at 0.

Take […] (CDR3 as printed); D9W derived by comparing it with the table's wild-type CDR3 AGPMKTSYDKVI: the enrichment was 0.

Take […] (CDR3 as printed); K5Q derived by comparing it with the table's wild-type CDR3 AGPMKTSYDKVI: the enrichment worked out at 0.

[…] (CDR3 as printed); I12K derived by comparing it with the table's wild-type CDR3 AGPMKTSYDKVI: the enrichment turned out to be 0.

[…] (CDR3 as printed); G2E derived by comparing it with the table's wild-type CDR3 AGPMKTSYDKVI: the enrichment amounted to 0.

Take […] (CDR3 as printed); D9V derived by comparing it with the table's wild-type CDR3 AGPMKTSYDKVI: the enrichment came out at 0.

As to […] (CDR3 as printed); K5F derived by comparing it with the table's wild-type CDR3 AGPMKTSYDKVI, the enrichment was determined as 0.

On to […] (CDR3 as printed); A1V derived by comparing it with the table's wild-type CDR3 AGPMKTSYDKVI, for which the enrichment was found to be 0.

With […] (CDR3 as printed); D9I derived by comparing it with the table's wild-type CDR3 AGPMKTSYDKVI, the enrichment is 0.

In the case of […] (CDR3 as printed); I12M derived by comparing it with the table's wild-type CDR3 AGPMKTSYDKVI, the enrichment came out at 0.

[…] (CDR3 as printed); G2L derived by comparing it with the table's wild-type CDR3 AGPMKTSYDKVI: the enrichment stood at 0.

For […] (CDR3 as printed); A1Q derived by comparing it with the table's wild-type CDR3 AGPMKTSYDKVI, the enrichment is 0.

Regarding […] (CDR3 as printed); A1I derived by comparing it with the table's wild-type CDR3 AGPMKTSYDKVI, the enrichment came out at 0.

In the case of […] (CDR3 as printed); K5R derived by comparing it with the table's wild-type CDR3 AGPMKTSYDKVI, the enrichment is 0.

For […] (CDR3 as printed); K5H derived by comparing it with the table's wild-type CDR3 AGPMKTSYDKVI, the enrichment was 0.

In the case of […] (CDR3 as printed); I12N derived by comparing it with the table's wild-type CDR3 AGPMKTSYDKVI, the enrichment stood at 0.

[…] (CDR3 as printed); G2C derived by comparing it with the table's wild-type CDR3 AGPMKTSYDKVI: the enrichment was found to be 0.

In the case of […] (CDR3 as printed); M4D derived by comparing it with the table's wild-type CDR3 AGPMKTSYDKVI, the enrichment came out at 0.

Turning to […] (CDR3 as printed); K5A derived by comparing it with the table's wild-type CDR3 AGPMKTSYDKVI, the enrichment stood at 0.

Turning to […] (CDR3 as printed); G2D derived by comparing it with the table's wild-type CDR3 AGPMKTSYDKVI, the enrichment worked out at 0.

[…] (CDR3 as printed); A1K derived by comparing it with the table's wild-type CDR3 AGPMKTSYDKVI: the enrichment worked out at 1.01.

On to […] (CDR3 as printed); K10N derived by comparing it with the table's wild-type CDR3 AGPMKTSYDKVI, for which the enrichment turned out to be 0.

In the case of […] (CDR3 as printed); D9R derived by comparing it with the table's wild-type CDR3 AGPMKTSYDKVI, the enrichment came to 0.

[…] (CDR3 as printed); K10Q derived by comparing it with the table's wild-type CDR3 AGPMKTSYDKVI: the enrichment is 0.

For the variant […] (CDR3 as printed); K10P derived by comparing it with the table's wild-type CDR3 AGPMKTSYDKVI, the enrichment was 0.

As to […] (CDR3 as printed); I12C derived by comparing it with the table's wild-type CDR3 AGPMKTSYDKVI, the enrichment turned out to be 0.

As to […] (CDR3 as printed); A1R derived by comparing it with the table's wild-type CDR3 AGPMKTSYDKVI, the enrichment was 0.

Regarding […] (CDR3 as printed); K10Y derived by comparing it with the table's wild-type CDR3 AGPMKTSYDKVI, the enrichment stood at 0.

In the case of […] (CDR3 as printed); I12L derived by comparing it with the table's wild-type CDR3 AGPMKTSYDKVI, the enrichment was found to be 0.

On to […] (CDR3 as printed); D9Y derived by comparing it with the table's wild-type CDR3 AGPMKTSYDKVI, for which the enrichment is 0.

With […] (CDR3 as printed); M4C derived by comparing it with the table's wild-type CDR3 AGPMKTSYDKVI, the enrichment worked out at 0.

Take […] (CDR3 as printed); I12P derived by comparing it with the table's wild-type CDR3 AGPMKTSYDKVI: the enrichment came out at 0.

On to […] (CDR3 as printed); K10I derived by comparing it with the table's wild-type CDR3 AGPMKTSYDKVI, for which the enrichment stood at 0.

Turning to […] (CDR3 as printed); G2N derived by comparing it with the table's wild-type CDR3 AGPMKTSYDKVI, the enrichment came to 0.

Regarding […] (CDR3 as printed); M4F derived by comparing it with the table's wild-type CDR3 AGPMKTSYDKVI, the enrichment came out at 0.

Take […] (CDR3 as printed); G2F derived by comparing it with the table's wild-type CDR3 AGPMKTSYDKVI: the enrichment is 0.

Consider […] (CDR3 as printed); I12G derived by comparing it with the table's wild-type CDR3 AGPMKTSYDKVI, for which the enrichment worked out at 0.

For […] (CDR3 as printed); D9T derived by comparing it with the table's wild-type CDR3 AGPMKTSYDKVI, the enrichment amounted to 0.

Take […] (CDR3 as printed); D9H derived by comparing it with the table's wild-type CDR3 AGPMKTSYDKVI: the enrichment is 0.

For the variant […] (CDR3 as printed); D9S derived by comparing it with the table's wild-type CDR3 AGPMKTSYDKVI, the enrichment was 0.

As for […] (CDR3 as printed); I12E derived by comparing it with the table's wild-type CDR3 AGPMKTSYDKVI, the enrichment was 0.

Consider […] (CDR3 as printed); G2W derived by comparing it with the table's wild-type CDR3 AGPMKTSYDKVI, for which the enrichment turned out to be 0.

[…] (CDR3 as printed); K10D derived by comparing it with the table's wild-type CDR3 AGPMKTSYDKVI: the enrichment turned out to be 0.

[…] (CDR3 as printed); I12Q derived by comparing it with the table's wild-type CDR3 AGPMKTSYDKVI: the enrichment stood at 0.

For the variant […] (CDR3 as printed); D9A derived by comparing it with the table's wild-type CDR3 AGPMKTSYDKVI, the enrichment was determined as 0.

Take […] (CDR3 as printed); G2Y derived by comparing it with the table's wild-type CDR3 AGPMKTSYDKVI: the enrichment came out at 0.

As to […] (CDR3 as printed); G2A derived by comparing it with the table's wild-type CDR3 AGPMKTSYDKVI, the enrichment came to 0.

Consider […] (CDR3 as printed); K10V derived by comparing it with the table's wild-type CDR3 AGPMKTSYDKVI, for which the enrichment was 0.

Regarding […] (CDR3 as printed); K5W derived by comparing it with the table's wild-type CDR3 AGPMKTSYDKVI, the enrichment was determined as 0.

For the variant […] (CDR3 as printed); K5M derived by comparing it with the table's wild-type CDR3 AGPMKTSYDKVI, the enrichment was found to be 0.

As to […] (CDR3 as printed); I12W derived by comparing it with the table's wild-type CDR3 AGPMKTSYDKVI, the enrichment came to 0.

In the case of […] (CDR3 as printed); A1F derived by comparing it with the table's wild-type CDR3 AGPMKTSYDKVI, the enrichment worked out at 0.

Take […] (CDR3 as printed); A1M derived by comparing it with the table's wild-type CDR3 AGPMKTSYDKVI: the enrichment came out at 0.

Take […] (CDR3 as printed); M4A derived by comparing it with the table's wild-type CDR3 AGPMKTSYDKVI: the enrichment amounted to 0.

On to […] (CDR3 as printed); K10L derived by comparing it with the table's wild-type CDR3 AGPMKTSYDKVI, for which the enrichment came to 0.

With […] (CDR3 as printed); K5D derived by comparing it with the table's wild-type CDR3 AGPMKTSYDKVI, the enrichment is 0.

As to […] (CDR3 as printed); G2Q derived by comparing it with the table's wild-type CDR3 AGPMKTSYDKVI, the enrichment was 0.

Regarding […] (CDR3 as printed); I12A derived by comparing it with the table's wild-type CDR3 AGPMKTSYDKVI, the enrichment is 0.

On to […] (CDR3 as printed); D9P derived by comparing it with the table's wild-type CDR3 AGPMKTSYDKVI, for which the enrichment is 0.

For the variant […] (CDR3 as printed); G2R derived by comparing it with the table's wild-type CDR3 AGPMKTSYDKVI, the enrichment was found to be 0.

In the case of […] (CDR3 as printed); A1D derived by comparing it with the table's wild-type CDR3 AGPMKTSYDKVI, the enrichment stood at 0.

[…] (CDR3 as printed); K10W derived by comparing it with the table's wild-type CDR3 AGPMKTSYDKVI: the enrichment was 0.

The values above are taken from publication PMC13397619.
